# Results: publication PMC7594083, “Preclinical Evaluation of the GRPR-Targeting Antagonist RM26 Conjugated to the Albumin-Binding Domain for GRPR-Targeting Therapy of Cancer” (Pharmaceutics, 2020)
# Where two headings read alike, the source gives them in different places.
# Assays:
# [1] = In vivo targeting specificity in mice bearing PC-3 xenografts; settings: female, BALB/c nu/nu, mouse, iv, total radioactivity, 40 pmol i.v., 72 h pi, 4 mice, SD, read-out: tumor activity uptake, non-blocked
# Method: The activity content was measured using a 2840 automated gamma counter Wizard^2TM (PerkinElmer, Waltham, MA, USA). Instant thin-layer chromatography (ITLC) results were analyzed using Cyclone® Plus (PerkinElmer). Statistical analyses were performed by unpaired, two-tailed t-tests using GraphPad Prism 8 for Windows (GraphPad Software, San Diego, CA, USA); p values below 0.05 were considered significant.
# BALB/c nu/nu female mice were implanted subcutaneously with PC-3 cells in PBS (6.5 × 10^6 cells/mouse) on the hind leg. Tumor size was 0.4 ± 0.2 g at the time of the experiment (2−3 weeks following implantations). A group of four mice was used per data point.
# The mice were euthanized at 72 h post injection (pi).
# [2] = Biodistribution in mice bearing PC-3 xenografts; format: in vivo, mice (BALB/c nu/nu female); settings: female, BALB/c nu/nu, mouse, in vivo, iv, 40 pmol, total radioactivity
# Method: (§1) Instant thin-layer chromatography (ITLC) results were analyzed using Cyclone® Plus (PerkinElmer). […] BALB/c nu/nu female mice were implanted subcutaneously with PC-3 cells in PBS (6.5 × 10^6 cells/mouse) on the hind leg. […] A group of four mice was used per data point. […] After euthanization, the organs of interest were collected and weighed, and the radioactivity content was measured on a gamma counter.
# PC-3 xenografts = assay: Biodistribution in mice bearing PC-3 xenografts; format: in vivo, mice (BALB/c nu/nu female); settings: mouse, in vivo
# Method: as §1
# GRPR [3] = biological target: T1, GRPR (Homo sapiens, UniProt P30550); assay: Competitive binding (IC50) assay on PC-3 cells; set-up: host or cells: PC-3 prostate carcinoma cells; settings: vs 1 nM [^111In]In-NOTA-PEG4-RM26, PC-3 cells, 0-10 µM, 4 °C, 5 h, n = 3, SD
# T1 sequence (P30550 whole entry): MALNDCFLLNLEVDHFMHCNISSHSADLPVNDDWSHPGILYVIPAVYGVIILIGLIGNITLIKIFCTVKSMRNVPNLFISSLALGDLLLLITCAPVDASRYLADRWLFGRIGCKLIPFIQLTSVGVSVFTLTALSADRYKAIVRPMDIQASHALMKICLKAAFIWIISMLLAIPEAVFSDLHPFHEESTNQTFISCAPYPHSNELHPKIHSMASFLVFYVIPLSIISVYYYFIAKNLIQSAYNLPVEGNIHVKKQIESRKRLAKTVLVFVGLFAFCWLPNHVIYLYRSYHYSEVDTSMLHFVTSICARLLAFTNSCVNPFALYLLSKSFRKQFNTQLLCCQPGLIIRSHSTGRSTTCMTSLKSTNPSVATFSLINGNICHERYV
# Method: Prostate carcinoma cell line PC-3 (GRPR positive) was purchased from ATCC, Manassas, VA, USA. […] PC-3 cells (5 × 10^5 cells/well) were plated on 12-well plates one day before the competitive binding assays. […] On the day of the experiment, the cells were washed, and 1 nM of [^111In]In-NOTA-PEG4-RM26 was added to each well along with a series of concentrations ranging between 0-10 μM of the competing conjugate. The dishes were incubated at 4 °C for 5 h. The cells were then washed and treated with trypsin-EDTA until cell detachment. The cells were collected, and the radioactivity content was measured using a gamma counter.
# GRPR [4] = biological target: T1, GRPR; settings: in vivo; cited from earlier work
# GRPR [5] = biological target: T1, GRPR; settings: cited from earlier work
# [6] = cited from earlier work
# From the text: However, as a consequence of the low amplitude for the melting curve of DOTA-ABD-RM26, the melting temperature can only be roughly estimated for this conjugate.
compound,measurement,setting,value
"CC[C@H](C)[C@H](NC(=O)[C@H](Cc1c[nH]cn1)NC(=O)[C@H](CC(C)C)NC(=O)[C@H](CCCCN)NC(=O)[C@H](CC(C)C)NC(=O)[C@H](C)NC(=O)[C@H](CCC(=O)O)NC(=O)[C@@H](NC(=O)CNC(=O)[C@H](CCC(=O)O)NC(=O)[C@@H](NC(=O)[C@@H](NC(=O)[C@H](CCCCN)NC(=O)[C@H](C)NC(=O)[C@H](CCCCN)NC(=O)[C@H](CC(N)=O)NC(=O)[C@@H](NC(=O)[C@H](CC(C)C)NC(=O)[C@H](CCCNC(=N)N)NC(=O)[C@H](CCCCN)NC(=O)[C@H](Cc1ccc(O)cc1)NC(=O)[C@H](Cc1ccccc1)NC(=O)[C@H](CC(=O)O)NC(=O)[C@H](CO)NC(=O)[C@@H](NC(=O)CNC(=O)[C@H](Cc1ccc(O)cc1)NC(=O)[C@H](CCCCNC(=O)CSCCC(=O)NCCOCCOCCOCCOCCC(=O)N[C@H](Cc1ccccc1)C(=O)N[C@@H](CCC(N)=O)C(=O)N[C@@H](Cc1c[nH]c2ccccc12)C(=O)N[C@@H](C)C(=O)N[C@H](C(=O)NCC(=O)N[C@@H](Cc1c[nH]cn1)C(=O)N[C@@H](CC(C)C)[C@@H](O)CC(=O)N[C@@H](CC(C)C)C(N)=O)C(C)C)NC(=O)[C@H](CC(=O)O)NC(=O)[C@H](CC(C)C)NC(=O)[C@H](CCC(=O)O)NC(=O)[C@H](CCCNC(=N)N)NC(=O)[C@H](CC(N)=O)NC(=O)[C@H](C)NC(=O)[C@H](CC(C)C)NC(=O)[C@@H](NC(=O)[C@H](CCCCN)NC(=O)[C@H](C)NC(=O)[C@H](CCC(=O)O)NC(=O)[C@H](C)NC(=O)[C@H](CC(C)C)NC(=O)CN1CCN(CC(=O)O)CCN(CC(=O)O)CCN(CC(=O)O)CC1)C(C)C)C(C)C)[C@@H](C)CC)[C@@H](C)O)C(C)C)C(C)C)C(=O)N[C@@H](CC(C)C)C(=O)N[C@@H](C)C(=O)N[C@@H](C)C(=O)N[C@@H](CC(C)C)C(=O)N1CCC[C@H]1C(N)=O [[^111In]In-DOTA-ABD-RM26, metal not drawn]",tissue uptake at 72 h,[1],10 ± 1 %ID/g
same,tissue uptake at 1 h,[2]; activity concentration in blood 1 h pi,32 ± 4 %ID/g
same,tissue uptake at 1 h,[2]; bone uptake 1 h pi,3.3 ± 0.4 %ID/g
same,tissue uptake at 24 h,[2]; bone uptake 24 h pi,4.4 ± 0.5 %ID/g
same,tissue uptake at 1 h,[2]; kidney uptake 1 h pi,35 ± 6 %ID/g
same,tissue uptake at 1 h,[2]; tumor activity uptake 1 h pi,7 ± 2 %ID/g
same,tissue uptake at 24 h,[2]; tumor activity uptake 24 h pi,11 ± 2 %ID/g
same,tissue uptake at 144 h,[2]; tumor activity uptake 144 h pi,10 ± 1 %ID/g
same,activity uptake in other organs at 24 h pi,PC-3 xenografts,activity uptake remained stable in the majority of the other studied organs
"CC[C@H](C)[C@H](NC(=O)[C@H](Cc1c[nH]cn1)NC(=O)[C@H](CC(C)C)NC(=O)[C@H](CCCCN)NC(=O)[C@H](CC(C)C)NC(=O)[C@H](C)NC(=O)[C@H](CCC(=O)O)NC(=O)[C@@H](NC(=O)CNC(=O)[C@H](CCC(=O)O)NC(=O)[C@@H](NC(=O)[C@@H](NC(=O)[C@H](CCCCN)NC(=O)[C@H](C)NC(=O)[C@H](CCCCN)NC(=O)[C@H](CC(N)=O)NC(=O)[C@@H](NC(=O)[C@H](CC(C)C)NC(=O)[C@H](CCCNC(=N)N)NC(=O)[C@H](CCCCN)NC(=O)[C@H](Cc1ccc(O)cc1)NC(=O)[C@H](Cc1ccccc1)NC(=O)[C@H](CC(=O)O)NC(=O)[C@H](CO)NC(=O)[C@@H](NC(=O)CNC(=O)[C@H](Cc1ccc(O)cc1)NC(=O)[C@H](CCCCNC(=O)CSCCC(=O)NCCOCCOCCOCCOCCC(=O)N[C@H](Cc1ccccc1)C(=O)N[C@@H](CCC(N)=O)C(=O)N[C@@H](Cc1c[nH]c2ccccc12)C(=O)N[C@@H](C)C(=O)N[C@H](C(=O)NCC(=O)N[C@@H](Cc1c[nH]cn1)C(=O)N[C@@H](CC(C)C)[C@@H](O)CC(=O)N[C@@H](CC(C)C)C(N)=O)C(C)C)NC(=O)[C@H](CC(=O)O)NC(=O)[C@H](CC(C)C)NC(=O)[C@H](CCC(=O)O)NC(=O)[C@H](CCCNC(=N)N)NC(=O)[C@H](CC(N)=O)NC(=O)[C@H](C)NC(=O)[C@H](CC(C)C)NC(=O)[C@@H](NC(=O)[C@H](CCCCN)NC(=O)[C@H](C)NC(=O)[C@H](CCC(=O)O)NC(=O)[C@H](C)NC(=O)[C@H](CC(C)C)NC(=O)CN1CCN(CC(=O)O)CCN(CC(=O)O)CCN(CC(=O)O)CC1)C(C)C)C(C)C)[C@@H](C)CC)[C@@H](C)O)C(C)C)C(C)C)C(=O)N[C@@H](CC(C)C)C(=O)N[C@@H](C)C(=O)N[C@@H](C)C(=O)N[C@@H](CC(C)C)C(=O)N1CCC[C@H]1C(N)=O [^natIn-DOTA-ABD-RM26, metal not drawn]",IC50,"GRPR [3]; 10-fold molar excess of HSA, read-out: half-maximal inhibitory concentration (IC50) in the presence of HSA",49 ± 5 nM
same,IC50,"GRPR [3]; without HSA, read-out: half-maximal inhibitory concentration (IC50)",30 ± 3 nM
Mercaptopropionyl-[PEG4]-D-Phe-Gln-Trp-Ala-Val-Gly-His-Sta-Leu-NH2 [RM26],renal reabsorption,GRPR [4],low renal reabsorption
same,pharmacokinetics,GRPR [5],favorable pharmacokinetics
bombesin,secondary structure upon interaction with lipids and membranes,[6],form alpha-helical structures
